Data as given in paper doi:10.1101/2020.11.20.391094.

How the values were obtained:
[1] = target: His-SctV, full length, synthesized in C41; also reconstituted in peptidiscs (His-SctV9-PR) (enteropathogenic E. coli (EPEC)); assay: SEC-MALS
[2] = target: His-SctV, full length, synthesized in C41; also reconstituted in peptidiscs (His-SctV9-PR) (enteropathogenic E. coli (EPEC)); assay: native gel or EMSA
[3] = target: His-SctV-C, isolated C-terminal cytoplasmic domain of EPEC SctV (enteropathogenic E. coli (EPEC)); assay: native MS
[4] = target: His-SctV-C, isolated C-terminal cytoplasmic domain of EPEC SctV (enteropathogenic E. coli (EPEC)); assay: SEC-MALS
[5] = target: His-SctV-C, isolated C-terminal cytoplasmic domain of EPEC SctV (enteropathogenic E. coli (EPEC)); assay: native gel or EMSA
[6] = target: SctV, full length, untagged, plasmid-borne in E. coli C41 (enteropathogenic E. coli (EPEC)); assay: native gel or EMSA

For “His-SctV, full length, synthesized in C41; also reconstituted in peptidiscs (His-SctV9-PR) (natural protein)”, the stoichiometry N [1] was 9 and the stoichiometry N [2] was 9.

“His-SctV-C, isolated C-terminal cytoplasmic domain of EPEC SctV (domain or fragment)” showed a stoichiometry N [3] of 9, a stoichiometry N [4] of 9 and a stoichiometry N [5] of 9.

With “SctV, full length, untagged, plasmid-borne in E. coli C41 (natural protein)” the stoichiometry N [6] was 9.
